Source: the supplement of paper PMC11316812
± gives the standard deviation of the averaged measurements.

Experiments:
hTERT-HMEC = test: percentage of EdU-negative (G0-arrested) nuclei per well, 72 h; higher = more G0 arrest; details: reference: sequence is the full UniProt precursor, the tested protein was the secreted form or ectodomain
MCF7 = test: as above; details: reference: sequence is the full UniProt precursor, the tested protein was the secreted form or ectodomain
[1] = protein concentration 0.0225 µM
[2] = protein concentration 0.03125 µM
[3] = protein concentration 0.3125 µM
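Note: secreted proteins added to cultured cells, EdU pulse at the end, nuclei found by Hoechst imaging, EdU status from nuclear versus surrounding ring intensity ratio, PBS as neutral control.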

| Sequence | percentage of EdU-negative (hTERT-HMEC; [1]) | percentage of EdU-negative (hTERT-HMEC; protein concentration 0.225 µM) | percentage of EdU-negative (MCF7; [1]) | percentage of EdU-negative (MCF7; protein concentration 0.225 µM) | percentage of EdU-negative (hTERT-HMEC; [2]) | percentage of EdU-negative (hTERT-HMEC; [3]) | percentage of EdU-negative (MCF7; [2]) | percentage of EdU-negative (MCF7; [3]) |
| --- | --- | --- | --- | --- | --- | --- | --- | --- |
| MEYQILKMSLCLFILLFLTPGILCICPLQCICTERHRHVDCSGRNLSTLPSGLQENIIHLNLSYNHFTDLHNQLTQYTNLRTLDISNNRLESLPAHLPRSLWNMSAANNNIKLLDKSDTAYQWNLKYLDVSKNMLEKVVLIKNTLRSLEVLNLSSNKLWTVPTNMPSKLHIVDLSNNSLTQILPGTLINLTNLTHLYLHNNKFTFIPDQSFDQLFQLQEITLYNNRWSCDHKQNITYLLKWMMETKAHVIGTPCSTQISSLKEHNMYPTPSGFTSSLFTVSGMQTVDTINSLSVVTQPKVTKIPKQYRTKETTFGATLSKDTTFTSTDKAFVPYPEDTSTETINSHEAAAATLTIHLQDGMVTNTSLTSSTKSSPTPMTLSITSGMPNNFSEMPQQSTTLNLWREETTTNVKTPLPSVANAWKVNASFLLLLNVVVMLAV | 5.851 ± 0.022% | 10.4 ± 1.5% | 24.1 ± 0.32% | 27.6 ± 1.6% |  |  |  |  |
| MFCPLKLILLPVLLDYSLGLNDLNVSPPELTVHVGDSALMGCVFQSTEDKCIFKIDWTLSPGEHAKDEYVLYYYSNLSVPIGRFQNRVHLMGDILCNDGSLLLQDVQEADQGTYICEIRLKGESQVFKKAVVLHVLPEEPKELMVHVGGLIQMGCVFQSTEVKHVTKVEWIFSGRRAKEEIVFRYYHKLRMSVEYSQSWGHFQNRVNLVGDIFRNDGSIMLQGVRESDGGNYTCSIHLGNLVFKKTIVLHVSPEEPRTLVTPAALRPLVLGGNQLVIIVGIVCATILLLPVLILIVKKTCGNKSSVNSTVLVKNTKKTNPEIKEKPCHFERCEGEKHIYSPIIVREVIEEEEPSEKSEATYMTMHPVWPSLRSDRNNSLEKKSGGGMPKTQQAF [Q86YT9] | 4.64 ± 0.38% | 5.35 ± 1.2% | 23.21 ± 0.041% | 24.8 ± 2.1% |  |  |  |  |
| MFFWCACCLMVAWRVSASDAEHCPELPPVDNSIFVAKEVEGQILGTYVCIKGYHLVGKKTLFCNASKEWDNTTTECRLGHCPDPVLVNGEFSSSGPVNVSDKITFMCNDHYILKGSNRSQCLEDHTWAPPFPICKSRDCDPPGNPVHGYFEGNNFTLGSTISYYCEDRYYLVGVQEQQCVDGEWSSALPVCKLIQEAPKPECEKALLAFQESKNLCEAMENFMQQLKESGMTMEELKYSLELKKAELKAKLL | 5.33 ± 0.68% | 12 ± 1.5% | 24.2 ± 1.2% | 27.8 ± 3.5% |  |  |  |  |
| MFHQIWAALLYFYGIILNSIYQCPEHSQLTTLGVDGKEFPEVHLGQWYFIAGAAPTKEELATFDPVDNIVFNMAAGSAPMQLHLRATIRMKDGLCVPRKWIYHLTEGSTDLRTEGRPDMKTELFSSSCPGGIMLNETGQGYQRFLLYNRSPHPPEKCVEEFKSLTSCLDSKAFLLTPRNQEACELSNN | 4.08 ± 0.27% | 9.42 ± 0.84% | 23.57 ± 0.056% | 30.2 ± 0.5% |  |  |  |  |
| MFHSSAMVNSHRKPMFNIHRGFYCLTAILPQICICSQFSVPSSYHFTEDPGAFPVATNGERFPWQELRLPSVVIPLHYDLFVHPNLTSLDFVASEKIEVLVSNATQFIILHSKDLEITNATLQSEEDSRYMKPGKELKVLSYPAHEQIALLVPEKLTPHLKYYVAMDFQAKLGDGFEGFYKSTYRTLGGETRILAVTDFEPTQARMAFPCFDEPLFKANFSIKIRRESRHIALSNMPKVKTIELEGGLLEDHFETTVKMSTYLVAYIVCDFHSLSGFTSSGVKVSIYASPDKRNQTHYALQASLKLLDFYEKYFDIYYPLSKLDLIAIPDFAPGAMENWGLITYRETSLLFDPKTSSASDKLWVTRVIAHELAHQWFGNLVTMEWWNDIWLKEGFAKYMELIAVNATYPELQFDDYFLNVCFEVITKDSLNSSRPISKPAETPTQIQEMFDEVSYNKGACILNMLKDFLGEEKFQKGIIQYLKKFSYRNAKNDDLWSSLSNSCLESDFTSGGVCHSDPKMTSNMLAFLGENAEVKEMMTTWTLQKGIPLLVVKQDGCSLRLQQERFLQGVFQEDPEWRALQERYLWHIPLTYSTSSSNVIHRHILKSKTDTLDLPEKTSWVKFNVDSNGYYIVHYEGHGWDQLITQLNQNHTLLRPKDRVGLIHDVFQLVGAGRLTLDKALDMTYYLQHETSSPALLEGLSYLESFYHMMDRRNISDISENLKRYLLQYFKPVIDRQSWSDKGSVWDRMLRSALLKLACDLNHAPCIQKAAELFSQWMESSGKLNIPTDVLKIVYSVGAQTTAGWNYLLEQYELSMSSAEQNKILYALSTSKHQEKLLKLIELGMEGKVIKTQNLAALLHAIARRPKGQQLAWDFVRENWTHLLKKFDLGSYDIRMIISGTTAHFSSKDKLQEVKLFFESLEAQGSHLDIFQTVLETITKNIKWLEKNLPTLRTWLMVNT [Q6P179] | 4.8 ± 0.71% | 5.45 ± 0.3% | 25.63 ± 0.041% | 25.5 ± 0.38% |  |  |  |  |
| MFHVSFRYIFGLPPLILVLLPVASSDCDIEGKDGKQYESVLMVSIDQLLDSMKEIGSNCLNNEFNFFKRHICDANKEGMFLFRAARKLRQFLKMNSTGDFDLHLLKVSEGTTILLNCTGQVKGRKPAALGEAQPTKSLEENKSLKEQKKLNDLCFLKRLLQEIKTCWNKILMGTKEH | 5.22 ± 1% | 6.63 ± 0.069% | 27.6 ± 3.5% | 25.3 ± 1.1% | 5.03 ± 1.4% | 4.47 ± 0.49% | 26 ± 0.34% | 25.9 ± 0.41% |
